Laboratory results: US20260248892A1 (Sanofi, published 2026)

Key:
Test in all cases: cell-based or functional assay
Pig IR = Pig IR (pig, UniProt F1SCL0 28-1382)
Rat IR = Rat IR (rat, UniProt P15127 27-1383)
[1] = target: human insulin receptor isoform A (human, UniProt P06213-2 28-1370)
[2] = target: human insulin receptor isoform B (human, UniProt P06213 28-1382)

Chain of Rat IR (P15127 27-1383): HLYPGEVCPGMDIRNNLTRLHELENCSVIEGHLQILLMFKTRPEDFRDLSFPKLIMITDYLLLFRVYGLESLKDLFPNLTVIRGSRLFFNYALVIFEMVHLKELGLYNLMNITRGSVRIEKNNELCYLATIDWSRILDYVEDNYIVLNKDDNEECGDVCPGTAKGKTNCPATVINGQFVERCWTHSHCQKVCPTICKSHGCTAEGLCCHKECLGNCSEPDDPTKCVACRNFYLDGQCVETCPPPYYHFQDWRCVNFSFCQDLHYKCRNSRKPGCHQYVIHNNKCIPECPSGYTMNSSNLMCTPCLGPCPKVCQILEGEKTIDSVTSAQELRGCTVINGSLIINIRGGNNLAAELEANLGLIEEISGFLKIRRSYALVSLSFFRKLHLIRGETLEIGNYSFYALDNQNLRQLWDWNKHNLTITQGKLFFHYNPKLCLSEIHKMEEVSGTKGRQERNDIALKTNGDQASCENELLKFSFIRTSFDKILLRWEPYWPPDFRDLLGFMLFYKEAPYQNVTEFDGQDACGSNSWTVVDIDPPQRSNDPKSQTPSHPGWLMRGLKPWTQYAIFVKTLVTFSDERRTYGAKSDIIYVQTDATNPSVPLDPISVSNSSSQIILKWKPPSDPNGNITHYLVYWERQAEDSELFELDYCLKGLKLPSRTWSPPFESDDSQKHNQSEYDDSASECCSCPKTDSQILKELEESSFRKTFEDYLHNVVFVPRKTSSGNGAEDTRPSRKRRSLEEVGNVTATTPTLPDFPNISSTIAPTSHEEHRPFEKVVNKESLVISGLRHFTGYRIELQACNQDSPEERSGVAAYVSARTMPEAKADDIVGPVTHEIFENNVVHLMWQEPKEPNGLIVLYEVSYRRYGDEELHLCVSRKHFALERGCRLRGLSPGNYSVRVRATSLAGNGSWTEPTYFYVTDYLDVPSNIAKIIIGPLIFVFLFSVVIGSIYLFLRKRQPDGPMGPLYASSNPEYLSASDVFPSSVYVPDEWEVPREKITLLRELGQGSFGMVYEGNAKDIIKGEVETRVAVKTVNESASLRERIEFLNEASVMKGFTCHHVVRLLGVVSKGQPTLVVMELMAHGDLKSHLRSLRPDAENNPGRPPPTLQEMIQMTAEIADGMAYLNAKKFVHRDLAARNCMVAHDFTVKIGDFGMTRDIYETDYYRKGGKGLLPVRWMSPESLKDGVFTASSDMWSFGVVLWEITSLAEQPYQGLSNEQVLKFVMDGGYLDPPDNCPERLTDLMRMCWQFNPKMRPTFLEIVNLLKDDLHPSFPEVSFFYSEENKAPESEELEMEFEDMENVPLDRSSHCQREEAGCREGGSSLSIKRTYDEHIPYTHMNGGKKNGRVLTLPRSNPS

B1: scl-Fc fusion protein INS021 (Fc fusion)
chain: SFVNQHLCGSHLVEALELVCGERGFHYTPKTEEYPGDVGIVEQCCTSICSLSQLENYCGGEAEDLQVGQVELGGGPGAGSLQLALEGSLQGGPSVFLFPPKPKDTLMISRTPEVTCVVVDVSHEDPEVKFNWYVDGVEVHNAKTKPREEQYNSTYRVVSVLTVLHQDWLNGKEYKCKVSNKALPAPIEKTISKAKGQPREPQVYTLPPSRDELTKNQVSLTCLVKGFYPSDIAVEWESNGQPENNYKTTPPVLDSDGSFFLYSKLTVDKSRWQQGNVFSCSVMHEALHNHYTQKSLSLSPGGGGGSAESKYGPPCPPCPA
Pig IR phosphorylation [EC 50 nM] mean (Pig IR): 56.7 nM
Rat IR phosphorylation [EC50 nM] mean (Rat IR): 620 nM
hIR-A phosphorylation [EC50 nM] mean [1]: 447 nM
hIR-B-phosphorylation [EC50 nM] mean [2]: 288 nM

B2: scl-Fc fusion protein INS017 (Fc fusion)
chain: SFVNQHLCGSHLVEALHLVCGERGFHYTPKTGSYPGGVGIVEQCCTSICSLSQLENYCGGEAEDLQVGQVELGGGPGAGSLQPEGSLQGGPSVFLFPPKPKDTLMISRTPEVTCVVVDVSHEDPEVKFNWYVDGVEVHNAKTKPREEQYNSTYRVVSVLTVLHQDWLNGKEYKCKVSNKALPAPIEKTISKAKGQPREPQVYTLPPSRDELTKNQVSLTCLVKGFYPSDIAVEWESNGQPENNYKTTPPVLDSDGSFFLYSKLTVDKSRWQQGNVFSCSVMHEALHNHYTQKSLSLSPGGGGGSAESKYGPPCPPCPA
Pig IR phosphorylation [EC 50 nM] mean (Pig IR): 26.3 nM
Rat IR phosphorylation [EC50 nM] mean (Rat IR): 53.6 nM
hIR-A phosphorylation [EC50 nM] mean [1]: 70.6 nM
hIR-B-phosphorylation [EC50 nM] mean [2]: 36 nM

B3: scl-Fc fusion protein INS019 (Fc fusion)
chain: SFVNQHLCGSHLVEALELVCGERGFHYTPKTGSYPGGVGIVEQCCTSICSLSQLEDYCGGEAEDLQVGQVELGGGPGAGSLQPEGSLQGGPSVFLFPPKPKDTLMISRTPEVTCVVVDVSHEDPEVKFNWYVDGVEVHNAKTKPREEQYNSTYRVVSVLTVLHQDWLNGKEYKCKVSNKALPAPIEKTISKAKGQPREPQVYTLPPSRDELTKNQVSLTCLVKGFYPSDIAVEWESNGQPENNYKTTPPVLDSDGSFFLYSKLTVDKSRWQQGNVFSCSVMHEALHNHYTQKSLSLSPGGGGGSAESKYGPPCPPCPA
Pig IR phosphorylation [EC 50 nM] mean (Pig IR): 43 nM
Rat IR phosphorylation [EC50 nM] mean (Rat IR): 2200 nM
hIR-A phosphorylation [EC50 nM] mean [1]: 666 nM
hIR-B-phosphorylation [EC50 nM] mean [2]: 292 nM

B4: scl-Fc fusion protein INS023 (Fc fusion)
chain: SFVNQHLCGSHLVEALELVCGERGFHYTPKTGSYPGGVGIVEQCCTSICSLSQLENYCGGEAEDLQVGQVELGGGPGAGSLQPEGSLQGGPSVFLFPPKPKDTLMISRTPEVTCVVVDVSHEDPEVKFNWYVDGVEVHNAKTKPREEQYNSTYRVVSVLTVLHQDWLNGKEYKCKVSNKALPAPIEKTISKAKGQPREPQVYTLPPSRDELTKNQVSLTCLVKGFYPSDIAVEWESNGQPENNYKTTPPVLDSDGSFFLYSKLTVDKSRWQQGNVFSCSVMHEALHNHYTQKSLSLSPGGGGGSAESKYGPPCPPCPA
Pig IR phosphorylation [EC 50 nM] mean (Pig IR): 29.9 nM
Rat IR phosphorylation [EC50 nM] mean (Rat IR): 381 nM
hIR-A phosphorylation [EC50 nM] mean [1]: 408 nM
hIR-B-phosphorylation [EC50 nM] mean [2]: 59.8 nM

B5: scl-Fc fusion protein INS018 (Fc fusion)
chain: FVNQHLCGSHLVEALELVCGERGFHYTPKTGSYPGGVGIVEQCCTSICSLSQLEDYCGGEAEDLQVGQVELGGGPGAGSLQPEGSLQGGPSVFLFPPKPKDTLMISRTPEVTCVVVDVSHEDPEVKFNWYVDGVEVHNAKTKPREEQYNSTYRVVSVLTVLHQDWLNGKEYKCKVSNKALPAPIEKTISKAKGQPREPQVYTLPPSRDELTKNQVSLTCLVKGFYPSDIAVEWESNGQPENNYKTTPPVLDSDGSFFLYSKLTVDKSRWQQGNVFSCSVMHEALHNHYTQKSLSLSPGGGGGSAESKYGPPCPPCPA
Pig IR phosphorylation [EC 50 nM] mean (Pig IR): 60 nM
Rat IR phosphorylation [EC50 nM] mean (Rat IR): 233 nM
hIR-A phosphorylation [EC50 nM] mean [1]: 536 nM
hIR-B-phosphorylation [EC50 nM] mean [2]: 260 nM

B6: scl-Fc fusion protein INS020 (Fc fusion)
chain: FVNQHLCGSHLVEALELVCGERGFHYTPKTEEYPGDVGIVEQCCTSICSLSQLENYCGGEAEDLQVGQVELGGGPGAGSLQPEGSLQGGPSVFLFPPKPKDTLMISRTPEVTCVVVDVSHEDPEVKFNWYVDGVEVHNAKTKPREEQYNSTYRVVSVLTVLHQDWLNGKEYKCKVSNKALPAPIEKTISKAKGQPREPQVYTLPPSRDELTKNQVSLTCLVKGFYPSDIAVEWESNGQPENNYKTTPPVLDSDGSFFLYSKLTVDKSRWQQGNVFSCSVMHEALHNHYTQKSLSLSPGGGGGSAESKYGPPCPPCPA
Pig IR phosphorylation [EC 50 nM] mean (Pig IR): 157 nM
Rat IR phosphorylation [EC50 nM] mean (Rat IR): 247 nM
hIR-A phosphorylation [EC50 nM] mean [1]: 718 nM
hIR-B-phosphorylation [EC50 nM] mean [2]: 185 nM

B7: scl-Fc fusion protein INS022 (Fc fusion)
chain: FVNQHLCGSHLVEALELVCGERGFHYTPKTGSYPGGVGIVEQCCTSICSLSQLENYCGGEAEDLQVGQVELGGGPGAGSLQPEGSLQGGPSVFLFPPKPKDTLMISRTPEVTCVVVDVSHEDPEVKFNWYVDGVEVHNAKTKPREEQYNSTYRVVSVLTVLHQDWLNGKEYKCKVSNKALPAPIEKTISKAKGQPREPQVYTLPPSRDELTKNQVSLTCLVKGFYPSDIAVEWESNGQPENNYKTTPPVLDSDGSFFLYSKLTVDKSRWQQGNVFSCSVMHEALHNHYTQKSLSLSPGGGGGSAESKYGPPCPPCPA
Pig IR phosphorylation [EC 50 nM] mean (Pig IR): 15.9 nM
Rat IR phosphorylation [EC50 nM] mean (Rat IR): 64.9 nM
hIR-A phosphorylation [EC50 nM] mean [1]: 215 nM
hIR-B-phosphorylation [EC50 nM] mean [2]: 42.2 nM
